In US20180057567A1 (Sanofi, published 2018):

Experiments:
[1] = target: T1, CD123 (UniProt P26951 19-305, limits assumed); test: SPR (Biacore), CD123 as analyte
T1 sequence (looked up): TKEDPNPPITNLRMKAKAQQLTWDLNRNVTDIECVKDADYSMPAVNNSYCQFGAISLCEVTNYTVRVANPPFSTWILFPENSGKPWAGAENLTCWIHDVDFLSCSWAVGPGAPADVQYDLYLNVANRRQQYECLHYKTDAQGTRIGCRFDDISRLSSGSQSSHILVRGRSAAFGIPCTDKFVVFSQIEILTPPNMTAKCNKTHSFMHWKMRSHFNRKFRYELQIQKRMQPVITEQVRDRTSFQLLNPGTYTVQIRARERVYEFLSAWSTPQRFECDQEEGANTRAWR

[2] = target: T2, CD3; test: SPR (Biacore), CD3 as analyte
T2 chain 1: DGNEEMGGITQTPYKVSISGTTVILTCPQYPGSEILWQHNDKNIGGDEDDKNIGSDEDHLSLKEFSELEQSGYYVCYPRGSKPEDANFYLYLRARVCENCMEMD
T2 chain 2: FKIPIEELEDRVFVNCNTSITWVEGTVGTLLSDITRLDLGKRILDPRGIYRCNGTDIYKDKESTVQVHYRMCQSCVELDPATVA

[3] = target: T3, recombinant human IL4 (human, UniProt P05112 25-153); test: SPR (Biacore)
T3 construct: Bought protein
T3 sequence (looked up): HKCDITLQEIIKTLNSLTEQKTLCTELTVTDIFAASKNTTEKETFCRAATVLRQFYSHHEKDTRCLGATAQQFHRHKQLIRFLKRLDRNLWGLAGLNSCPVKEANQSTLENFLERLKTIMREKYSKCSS

B1: antibody in Bivalent Fab configuration, MCH2 domain of one Fab-like fragment (CD3) linked to a variable domain of the other Fab (CD123) (Example 5) (bispecific antibody)
light 1: DIVMTQTPLSLSVTPGQPASISCKSSQSLVHNNANTYLSWYLQKPGQSPQSLIYKVSNRFSGVPDRFSGSGSGTDFTLKISRVEAEDVGVYYCGQGTQYPFTFGSGTKVEIKRTVIAELPPKVSVFVPPRDGFFGNPRKSKLICQATGFSPRQIQVSWLREGKQVGSGVTTDQVQAEAKESGPTTYKVTSTLTIKESDWLGQSMFTCRVDHRGLTFQQNASSMCVP
heavy: QVQLVESGGGVVQPGRSLRLSCAASGFTFTKAWMHWVRQAPGKQLEWVAQIKDKSNSYATYYADSVKGRFTISRDDSKNTLYLQMNSLRAEDTAVYYCRGVYYALSPFDYWGQGTLVTVSSGGVIAELPPKVSVFVPPRDGFFGNPRKSKLICQATGFSPRQIQVSWLREGKQVGSGVTTDQVQAEAKESGPTTYKVTSTLTIKESDWLGQSMFTCRVDHRGLTFQQNASSMCVPGGGSEVQLVQSGAEVKKPGESLKISCKGSGYSFTDYYMKWARQMPGKGLEWMGDIIPSSGATFYNQKFKGQVTISADKSISTTYLQWSSLKASDTAMYYCARSHLLRASWFAYWGQGTMVTVSSASTKGPSVFPLAPSSKSTSGGTAALGCLVKDYFPEPVTVSWNSGALTSGVHTFPAVLQSSGLYSLSSVVTVPSSSLGTQTYICNVNHKPSNTKVDKKVEPKSCDKTHTHHHHHH
light 2: not shown
notes: also called bispecific bivalent Fab; bivalent bispecific Fab fragment
Q: Which Kd [1] does the source give for B1 here?
A: 0.0838 nM

Q: And the koff [1]?
A: 3.77e-05 s⁻¹

Q: And the kon [1]?
A: 450000 M⁻¹ s⁻¹

Q: What about the Kd [2] of the same binder?
A: 5.71 nM

Q: And the koff [2]?
A: 0.0009 s⁻¹

Q: And the kon [2]?
A: 158000 M⁻¹ s⁻¹

B2: F(ab')2-like antibody with ECH2 replacing the hinge region, anti-IL4 (hu8D4-8) CH1/kappa Fab and anti-IL13 (huBB13) MCH2 Fab (Example 7) (bispecific antibody)
heavy 1: VQLQQSGPELVKPGASVKISCKASGYSFTSYWIHWIKQRPGQGLEWIGMIDPSDGETRLNQRFQGRATLTVDESTSTAYMQLRSPTSEDSAVYYCTRLKEYGNYDSFYFDVWGAGTLVTVSSASTKGPSVFPLAPSSKSTSGGTAALGCLVKDYFPEPVTVSWNSGALTSGVHTFPAVLQSSGLYSLSSVVTVPSSSLGTQTYICNVNHKPSNTKVDKKVEPKSCGSGSGSVASRDFTPPTVKILQSSCDGGGHFPPTIQLLCLVSGYTPGTIQITWLEDGQVMDVDLSTASTTQEGELASTQSELTLSQKHWLSDRTYTCQVTYQGHTFEDSTKKCA
light 1: DIQMTQSPASLSVSVGDTITLTCHASQNIDVWLSWFQQKPGNIPKLLIYKASNLHTGVPSRFSGSGSGTGFTLTISSLQPEDIATYYCQQAHSYPFTFGGGTKLEIKRTVAAPSVFIFPPSDEQLKSGTASVVCLLNNFYPREAKVQWKVDNALQSGNSQESVTEQDSKDSTYSLSSTLTLSKADYEKHKVYACEVTHQGLSSPVTKSFNRGEC
heavy 2: EVQLKESGPGLVAPGGSLSITCTVSGFSLTDSSINWVRQPPGKGLEWLGMIWGDGRIDYADALKSRLSISKDSSKSQVFLEMTSLRTDDTATYYCARDGYFPYAMDFWGQGTSVTVSSGSGSGSVIAELPPKVSVFVPPRDGFFGNPRKSKLICQATGFSPRQIQVSWLREGKQVGSGVTTDQVQAEAKESGPTTYKVTSTLTIKESDWLGQSMFTCRVDHRGLTFQQQASSMCVPGSGSGSVASRDFTPPTVKILQSSCDGGGHFPPTIQLLCLVSGYTPGTIQITWLEDGQVMDVDLSTASTTQEGELASTQSELTLSQKHWLSDRTYTCQVTYQGHTFEDSTKKCAGSHHHHHHHH
light 2: DIVLTQSPASLAVSLGQRATISCRASESVDSYGQSYMHWYQQKAGQPPKLLIYLASNLESGVPARFSGSGSRTDFTLTIDPVQAEDAATYYCQQNAEDSRTFGGGTKLEIKRTVIAELPPKVSVFVPPRDGFFGNPRKSKLICQATGFSPRQIQVSWLREGKQVGSGVTTDQVQAEAKESGPTTYKVTSTLTIKESDWLGQSMFTCRVDHRGLTFQQQASSMCVP
notes: also called pseudo hinge-CH2E-hybrid-Fab2
Q: Does B2 bind [3]?
A: binds

B3: bispecific Fab-like fragment in the CODV bivalent Fab configuration (ECH2), anti-IL13 (huBB13) x anti-IL4 (hu8D4-8) (Example 6) (bispecific antibody)
chain 1: EVQLKESGPGLVAPGGSLSITCTVSGFSLTDSSINWVRQPPGKGLEWLGMIWGDGRIDYADALKSRLSISKDSSKSQVFLEMTSLRTDDTATYYCARDGYFPYAMDFWGQGTSVTVSSSQVQLQQSGPELVKPGASVKISCKASGYSFTSYWIHWIKQRPGQGLEWIGMIDPSDGETRLNQRFQGRATLTVDESTSTAYMQLRSPTSEDSAVYYCTRLKEYGNYDSFYFDVWGAGTLVTVSSRTASTKGPVASRDFTPPTVKILQSSCDGGGHFPPTIQLLCLVSGYTPGTIQITWLEDGQVMDVDLSTASTTQEGELASTQSELTLSQKHWLSDRTYTCQVTYQGHTFEDSTKKCAGSHHHHHHHH
chain 2: DIQMTQSPASLSVSVGDTITLTCHASQNIDVWLSWFQQKPGNIPKLLIYKASNLHTGVPSRFSGSGSGTGFTLTISSLQPEDIATYYCQQAHSYPFTFGGGTKLEIKGQPKAAPDIVLTQSPASLAVSLGQRATISCRASESVDSYGQSYMHWYQQKAGQPPKLLIYLASNLESGVPARFSGSGSRTDFTLTIDPVQAEDAATYYCQQNAEDSRTFGGGTKLEIKTKGPSRTVASRDFTPPTVKILQSSCDGGGHFPPTIQLLCLVSGYTPGTIQITWLEDGQVMDVDLSTASTTQEGELASTQSELTLSQKHWLSDRTYTCQVTYQGHTFEDSTKKCA
notes: An 8x histidine tag was added for purification; also called CH2E-pseudo-CODV antibody
Q: Does B3 bind [3]?
A: binds
